Like-named read-outs stand apart in the source and are kept apart here.
Columns and labels:
[1] = test system: GST-PDE6δ; assay: GST-PDE6δ pull-down and release by Arl2/Arl3 from IMCD3 lysates; type: binding; conditions: 20 μM GST-PDE6δ on GSH-beads, 20 μM Arl2 or Arl3, 1 h 4 °C, anti-GFP immunoblot
Method: Figure 5 INPP5E ciliary enrichment is dependent on high affinity to PDE6δ. […] White bar indicates 5 μm. (b) Bar chart showing ratio of GFP intensity in cilia to the total GFP intensity, indicating the enrichment of GFP-tagged protein in cilia. […] Error bars indicate s.d., n≥35 (P<0.05; Student’s t-test). […] Formed complexes in the pulldown experiment were incubated with Arl2 or Arl3 as indicated. The amount of GFP-tagged interacting proteins bound to GST-PDE6δ was detected by immunoblotting with an antibody against GFP.
IMCD3 cells stably expressing GFP-INPP5E(WT) or GFP-INPP5E(KS) were lysed in lysis buffer containing 75 mM Hepes pH 7.5, 150 mM KCl, 1.5 mM EGTA, 1.5 mM MgCl2, 15% glycerol, 0.2% NP-40 and one protease inhibitor cocktail tablet (Roche). Cell lysates were cleared and supernatants were incubated for 1 h at 4 °C with 100 μl GSH-beads conjugated with 20 μM GST-PDE6δ. For the release assay, 20 μM of either Arl2 or Arl3 were added to the previous mixture and incubated for further 1 h at 4 °C. After 5 times washing with the lysis buffer, the complexes were analysed by western blotting using anti-GFP antibody (1:500; Santa Cruz Biotechnology sc-9996) and anti GST (1:5,000; home source). Full scans of western blots are provided in Supplementary Fig. 6.

[2] = test system: PDE6δ; assay: Stopped-flow fluorescence polarization kinetics of mantGppNHp-loaded Arl proteins with PDE6δ; type: binding; conditions: for association rate constant kon with PDE6δ: 0.2 μM mantGppNHp-loaded Arl protein, increasing PDE6δ; for association rate constant kon with PDE6δ / dissociation rate constant koff from PDE6δ: 20 °C; for association rate constant kon with PDE6δ / dissociation rate constant koff from PDE6δ / Kd: n=4; for dissociation rate constant koff from PDE6δ: 2 μM PDE6δ with 0.2 μM mantGppNHp-loaded Arl protein, 200-fold excess unlabelled Arl protein; for Kd: calculated from kinetic constants, ± s.d., read-out: equilibrium dissociation constant Kd with PDE6δ (Kd=koff/kon)
Method: Previously we have shown that the N-terminal helix of Arl3 is important to release myristoylated cargo from a complex with the shuttle factor UNC119 (ref. [30]). To find out whether the N-terminus of Arl3 and/or Arl2 has a similar if any role in the interaction with PDE6δ, fluorescence polarization measurements using full-length Arl3 (Arl3^fl) or an N-terminal truncated form (Arl3^ΔN) were performed. […] To investigate the role of the N-terminal helix of Arl3 in the release mechanism, we measured association and dissociation rate constants to determine the affinity of PDE6δ towards Arl2 and Arl3 in both full-length and N-terminal truncated forms. Association rate constants between the four proteins Arl3^fl, Arl3^ΔN, Arl2^fl and Arl2^ΔN are rather similar although association is almost twice as fast for full-length Arl3 as compared with Arl2 (Fig. 3a,b). […] The Kd values for Arl2^fl and Arl3^fl differ from previously determined values, likely because of the different techniques used.
Figure 3 Contribution of the N-terminal helix of Arl3 to the binding affinity with PDE6δ. (a) Stopped-flow fluorescence polarization kinetic measurements of the association of 0.2 μM mantGppNHp loaded Arl proteins with increasing concentrations of PDE6δ. The observed pseudo-first order rate constants (kobs) are plotted against PDE6δ concentration. (b) Bar charts of the association rate constants (kon) determined in a. (c,d) Stopped-flow fluorescence polarization kinetic experiments where complexes of 2 μM PDE6δ with 0.2 μM of full-length (Arl^fl) or N-terminally deleted (Arl^ΔN) mantGppNHp loaded Arl proteins as indicated were mixed with 200-fold excess of unlabelled Arl proteins to determine koff. (e) Bar charts of the dissociation rate constants (koff) from experiments in c,d. (f) Bar charts of the equilibrium dissociation constants (Kd) of complexes between PDE6δ and Arl proteins as determined from the kinetic constants in c,e. Error bars indicate s.d., n=4. TEXT PRINTED IN THE PICTURE: (b) Arl3^fl: kon (μM^-1s^-1): 5.97 | (b) Arl3^ΔN: kon (μM^-1s^-1): 4.25 | (b) Arl2^fl: kon (μM^-1s^-1): 2.25 | (b) Arl2^ΔN: kon (μM^-1s^-1): 3.09 | (e) Arl3^fl: koff (s^-1): 0.035 | (e) Arl3^ΔN: koff (s^-1): 0.92 | (e) Arl2^fl: koff (s^-1): 0.33 | (e) Arl2^ΔN: koff (s^-1): 0.98 | (f) Arl3^fl: kd (nM): 5.84 | (f) Arl3^ΔN: kd (nM): 217 | (f) Arl2^fl: kd (nM): 149 | (f) Arl2^ΔN: kd (nM): 319
All fluorescence polarization measurements were performed at 20 °C in a buffer containing 25 mM Tris-HCl (pH 7.5), 50 mM NaCl and 3 mM DTE. For the titration measurement, data were recorded with Fluoromax-4 spectrophotometer (HORIBA Jobin Yvon, Munich, Germany) with excitation and emission wavelengths at 530 and 580 nm for TAMRA-labelled INPP5E peptide and at 495 and 520 nm for fluorescein-labelled Rheb peptide. The kinetic measurements were monitored by a stopped-flow apparatus (Applied Photophysics) in the polarization mode using an excitation wavelength of 366 nm and filter with 420 nm cutoff for mantGppNHp bound Arl protein, excitation wavelength of 495 nm and filter with 520 nm cutoff for fluorescein-labelled Rheb peptide and excitation wavelength of 530 nm and filter with 570 nm cutoff for TAMRA-labelled INPP5E peptide. Data analysis was done with GraFit 5.0 program (Erithracus Software). Concentrations used for each experiment are indicated in the corresponding figure legend.

Molecule | release from GST-PDE6δ by Arl2·GppNHp / Arl3·GppNHp [1] | difference in koff / residence time with PDE6δ, full-length versus N-terminally deleted form [2] | association rate constant kon with PDE6δ [2] | association rate constant kon with PDE6δ ([2]; listed as Arl2^ΔN) | dissociation rate constant koff from PDE6δ [2] | dissociation rate constant koff from PDE6δ ([2]; listed as Arl2^ΔN) | Kd ([2]; listed as Arl2^ΔN) | Kd [2]
INPP5E(WT): GFP (LAP)-tagged mouse INPP5E stably expressed in IMCD3 cells (protein, left off: LAP tag (GFP-TEV-site-S-peptide), N-terminal, kept, GFP (LAP)-tagged mouse INPP5E stably expressed in IMCD3 cells) MPSKSACLRHTEAPGQLEGRMLQGQPPNTEKKLIPTPGFLPASDSQGSETNPMPPFSIPAKTSNQNPQTKANLITPQPPIRPKLERTLSLDDKGWRRRRFRGSQEDLTVQNGASPCRGSLQDSVAQSPAYSRPLPCLSTSLQEIPKSRRATGSEGGSPSLWSDCLSGMISTSLDLLHRDAASGGPPSRLASLHASHTPPAMDLSIASSSLRTANKVDPEHTDYKLRMQTRLVRAHSNLGPSRPRSPLAGDDHSIHSARSFSLLAPIRTKDIRSRSYLEGSLLASGALLGAEELARYFPDRNMALFVATWNMQGQKELPASLDEFLLPTEADYTQDLYVIGIQEGCSDRREWETRLQETLGPQYVLLSSAAHGVLYMSLFIRRDLIWFCSEVEYSTVTTRIVSQIKTKGALGVSFTFFGTSFLFITSHFTSGDGKVAERLLDYSRTIQALALPRNVPDTNPYRSSAGDVTTRFDEVFWFGDFNFRLSGGRVAVEAFLKQKPEVDVLALLQHDQLTREMKKGSIFRGFEEAEIHFLPSYKFDIGKDTYDSTSKQRTPSYTDRVLYKSRHKGDICPMKYSSCPGIKTSDHRPVYGLFQVKVRPGRDNIPLAAGKFDRELYLIGIKRRISKEIQRQEALKSQSSSAVC | specifically released only by Arl3·GppNHp |  |  |  |  |  |  | 
Arl2^fl: full-length Arl2, mantGppNHp loaded (protein, left off: His tag, C-terminal, state not stated, full-length Arl2, mantGppNHp loaded) MGLLTILKKMKQKERELRLLMLGLDNAGKTTILKKFNGEDVDTISPTLGFNIKTLEHRGFKLNIWDVGGQKSLRSYWRNYFESTDGLIWVVDSADRQRMQDCQRELQSLLVEERLAGATLLIFANKQDLPGALSCNAIQEALELDSIRSHHWRIQGCSAVTGEDLLPGIDWLLDDISSRVFTAD |  | threefold | 2.25 µM⁻¹ s⁻¹ | 3.09 µM⁻¹ s⁻¹ | 0.33 s⁻¹ | 0.98 s⁻¹ | 316 ± 6.3 nM | 149 ± 19 nM
INPP5E(KS) mutant: GFP-tagged INPP5E S641K/V643S protein stably expressed in IMCD3 cells (protein, left off: LAP tag (GFP-TEV-site-S-peptide), N-terminal, kept, GFP-tagged INPP5E S641K/V643S protein stably expressed in IMCD3 cells) MPSKSACLRHTEAPGQLEGRMLQGQPPNTEKKLIPTPGFLPASDSQGSETNPMPPFSIPAKTSNQNPQTKANLITPQPPIRPKLERTLSLDDKGWRRRRFRGSQEDLTVQNGASPCRGSLQDSVAQSPAYSRPLPCLSTSLQEIPKSRRATGSEGGSPSLWSDCLSGMISTSLDLLHRDAASGGPPSRLASLHASHTPPAMDLSIASSSLRTANKVDPEHTDYKLRMQTRLVRAHSNLGPSRPRSPLAGDDHSIHSARSFSLLAPIRTKDIRSRSYLEGSLLASGALLGAEELARYFPDRNMALFVATWNMQGQKELPASLDEFLLPTEADYTQDLYVIGIQEGCSDRREWETRLQETLGPQYVLLSSAAHGVLYMSLFIRRDLIWFCSEVEYSTVTTRIVSQIKTKGALGVSFTFFGTSFLFITSHFTSGDGKVAERLLDYSRTIQALALPRNVPDTNPYRSSAGDVTTRFDEVFWFGDFNFRLSGGRVAVEAFLKQKPEVDVLALLQHDQLTREMKKGSIFRGFEEAEIHFLPSYKFDIGKDTYDSTSKQRTPSYTDRVLYKSRHKGDICPMKYSSCPGIKTSDHRPVYGLFQVKVRPGRDNIPLAAGKFDRELYLIGIKRRISKEIQRQEALKSQSSKASCTVS | can indeed be released by both Arl2·GppNHp and Arl3·GppNHp |  |  |  |  |  |  | 

Source: PMC5512577, “PDE6δ-mediated sorting of INPP5E into the cilium is determined by cargo-carrier affinity” (Nature Communications, 2016)
